Assay results published in paper PMC2568864, “Chemical Dissection of the Link between Streptozotocin, O-GlcNAc, and Pancreatic Cell Death” (Chemistry & Biology, 2008).

Substrate: CC(=O)N[C@H]1[C@H](Oc2ccc3c(C)cc(=O)oc3c2)O[C@H](CO)[C@@H](O)[C@@H]1O
Test: purified protein

B1: human O-GlcNAcase (hOGA) (Homo sapiens) (protein)
chain: AAGGARRFLCGVVEGFYGRPWVMEQRKELFRRLQKWELNTYLYAPKDDYKHRMFWREMYSVEEAEQLMTLISAAREYEIEFIYAISPGLDITFSNPKEVSTLKRKLDQVSQFGCRSFALLFDDIDHNMCAADKEVFSSFAHAQVSITNEIYQYLGEPETFLFCPTEYCGTFCYPNVSQSPYLRTVGEKLLPGIEVLWTGPKVVSKEIPVESIEEVSKIIKRAPVIWDNIHANDYDQKRLFLGPYKGRSTELIPRLKGVLTNPNCEFEANYVAIHTLATWYKSNMNGVRKDVVMTDSEDSTVSIQIKLENEGSDEDIETDVLYSPQMALKLALTEWLQEFGVPHQYSSRQVAHSGAKASVVDGTPLVAAPSLNATTVVTTVYQEPIMSQGAALSGEPTTLTKEEEKKQPDEEPMDMVVEKQEETDHKNDNQILSEIVEAKMAEELKPMDTDKESIAESKSPEMSMQEDCISDIAPMQTDEQTNKEQFVPGPNEKPLYTAEPVTLEDLQLLADLFYLPYEHGPKGAQMLREFQWLRANSSVVSVNCKGKDSEKIEEWRSRAAKFEEMCGLVMGMFTRLSNCANRTILYDMYSYVWDIKSIMSMVKSFVQWLGCRSHSSAQFLIGDQEPWAFRGGLAGEFQRLLPIDGANDLFFQPPPLTPTSKVYTIRPYFPKDEASVYKICREMYDDGVGLPFQSQPDLIGDKLVGGLLSLSLDYCFVLEDEDGICGYALGTVDVTPFIKKCKISWIPFMQEKYTKPNGDKELSEAEKIMLSFHEEQEVLPETFLANFPSLIKMDIHKKVTDPSVAKSMMACLLSSLKANGSRGAFCEVRPDDKRILEFYSKLGCFEIAKMEGFPKDVVILGRSL
- Km: 80 ± 6 µM
